The values that follow come from publication PMC4383067.

This assay addresses Full-length human acetylcholinesterase (dimeric, recombinant) (human) (UniProt P22303). Briefly: SEC-MALS. On the technique in general: In gel filtration, larger molecules generally elute earlier.

Take “Full-length human acetylcholinesterase (dimeric, recombinant) (from UniProt P22303 32-614) (enzyme)”: the stoichiometry N was 2.

For orientation: stoichiometry N means the number of molecules, sites or subunits per partner or assembly.
